The first experiment deals with PP2A regulatory subunit B56δ (human (endogenous in human HEK TER cells)) (UniProt Q14738). The experiment is described as follows: anti-FLAG co-IP from HEK TER cells, immunoblot, densitometry; +++ >90%, ++ 50-90%, + <50%.
Chain of PP2A regulatory subunit B56δ (human (endogenous in human HEK TER cells)) (Q14738 whole entry, stated change not applied): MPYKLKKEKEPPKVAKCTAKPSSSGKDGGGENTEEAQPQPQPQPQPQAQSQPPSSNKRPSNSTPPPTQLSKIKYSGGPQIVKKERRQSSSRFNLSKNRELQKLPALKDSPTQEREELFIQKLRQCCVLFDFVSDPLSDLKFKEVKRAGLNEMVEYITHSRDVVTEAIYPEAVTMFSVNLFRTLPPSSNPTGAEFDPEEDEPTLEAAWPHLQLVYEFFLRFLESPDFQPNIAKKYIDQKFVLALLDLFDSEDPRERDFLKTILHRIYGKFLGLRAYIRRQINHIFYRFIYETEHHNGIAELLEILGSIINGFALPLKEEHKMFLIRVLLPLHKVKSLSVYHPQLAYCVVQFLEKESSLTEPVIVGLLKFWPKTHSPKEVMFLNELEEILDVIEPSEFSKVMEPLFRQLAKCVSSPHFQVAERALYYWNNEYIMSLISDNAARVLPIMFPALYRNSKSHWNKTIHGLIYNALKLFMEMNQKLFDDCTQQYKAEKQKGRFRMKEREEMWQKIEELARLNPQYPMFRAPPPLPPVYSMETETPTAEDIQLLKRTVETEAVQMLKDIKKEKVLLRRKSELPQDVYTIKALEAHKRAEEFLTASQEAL
Chain of cancer-derived FLAG-tagged PP2A Aβ mutant G8R (P30154 other isoform, or with tags, fused parts or gaps limits assumed, stated change not applied): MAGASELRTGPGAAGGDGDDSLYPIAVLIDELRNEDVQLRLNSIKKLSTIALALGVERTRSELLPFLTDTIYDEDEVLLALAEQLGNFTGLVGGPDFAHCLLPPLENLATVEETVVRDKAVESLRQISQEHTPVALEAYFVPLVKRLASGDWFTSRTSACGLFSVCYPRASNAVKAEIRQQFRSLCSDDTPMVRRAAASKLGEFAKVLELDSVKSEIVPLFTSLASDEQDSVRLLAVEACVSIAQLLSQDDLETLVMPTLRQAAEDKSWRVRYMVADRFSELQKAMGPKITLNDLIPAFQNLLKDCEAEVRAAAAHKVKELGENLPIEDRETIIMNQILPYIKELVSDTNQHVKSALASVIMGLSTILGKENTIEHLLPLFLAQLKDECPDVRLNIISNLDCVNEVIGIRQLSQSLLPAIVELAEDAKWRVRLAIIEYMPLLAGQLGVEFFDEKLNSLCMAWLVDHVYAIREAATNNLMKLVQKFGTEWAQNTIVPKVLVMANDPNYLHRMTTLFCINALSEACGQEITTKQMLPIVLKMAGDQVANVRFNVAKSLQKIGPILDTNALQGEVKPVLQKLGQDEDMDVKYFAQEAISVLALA
Chain of wild type (WT) FLAG epitope-tagged version of PP2A Aβ (P30154 whole entry): as the sequence (P30154 other isoform, or with tags, fused parts or gaps limits assumed, stated change not applied) above, with R8G counted along it
For “wild type (WT) FLAG epitope-tagged version of PP2A Aβ (from UniProt P30154 1-601)”, the binding level (percent, co-immunoprecipitation densitometry) is more than 90%.

On to “cancer-derived FLAG-tagged PP2A Aβ mutant K343E (from UniProt P30154 1-601)”, for which the binding level (percent, co-immunoprecipitation densitometry) fell in the range of 50 to 90%.

As for “cancer-derived FLAG-tagged PP2A Aβ mutant D504G (from UniProt P30154 1-601)”, the binding level (percent, co-immunoprecipitation densitometry) was more than 90%.

Turning to “cancer-derived FLAG-tagged PP2A Aβ mutant P65S (from UniProt P30154 1-601)”, the binding level (percent, co-immunoprecipitation densitometry) lay in the range of 50 to 90%.

As to “cancer-derived FLAG-tagged PP2A Aβ mutant G8R (from UniProt P30154 1-601)”, the binding level (percent, co-immunoprecipitation densitometry) is less than 50%.

In another experiment the target is endogenous RalA (human) (UniProt P11233). Briefly: cell-based or functional assay.
Chain of endogenous RalA (human) (P11233 1-203 limits assumed): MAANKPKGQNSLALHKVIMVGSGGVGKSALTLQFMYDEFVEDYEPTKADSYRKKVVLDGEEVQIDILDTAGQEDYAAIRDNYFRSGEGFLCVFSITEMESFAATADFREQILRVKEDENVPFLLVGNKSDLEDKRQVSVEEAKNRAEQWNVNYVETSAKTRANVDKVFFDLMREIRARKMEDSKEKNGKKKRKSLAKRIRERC
The substance “endogenous PP2A Aβ (from UniProt P30154 2-601)” gave a GTP-bound RalA levels (RalA activation assay, RalBP1 agarose pull-down) of 4.5 fold.

The values are drawn from patent publication US20110306057A1.
